Data set [1] deals with T1, anammoxosomal tubules (NXR A, B, C and T subunits) (Candidatus Kuenenia stuttgartensis, UniProt Q1PZD8).
T1 construct: gene narG; native tubules purified from K. stuttgartiensis cells by size exclusion and sucrose density gradient; with nitrite oxidoreductase subunit B, iron-sulfur subunit (NarH-like); nitrite oxidoreductase subunit C, haem b-containing subunit; nitrite oxidoreductase tubule-inducing subunit T, monohaem cytochrome c
The data set is described as follows: spectrophotometric, ferricyanide reduction at […] nm. The format is biochemical. As to conditions: 2 mM sodium nitrite; 800 µM ferricyanide; 50 mM KPi, 150 mM NaCl, pH 7.25; 35 °C; without dodecyl maltoside.

Data set [2] concerns the target Broful_01488, NXR-T homologue from Brocadia fulgida, recombinant, N-terminal His-tag cleaved (Brocadia fulgida). The data set is described as follows: crystal structure; Broful_01488 after cleavage of the N-terminal His-tag; 0.02 M LiCl, 0.02 M glycine pH 10.0, 33% PEG 1000, 0.05 M MgCl2; 4.0-4.5 Å, partial model.
For data set [3], the target named is NXR-T (Kustd1705), recombinant, as used for analytical ultracentrifugation (tagged version not stated) (Kuenenia stuttgartiensis). The data set is described as follows: AUC; sedimentation velocity and sedimentation equilibrium; 25 mM HEPES/KOH pH 7.5, 25 mM KCl; 25,000 or 30,000 r.p.m., 24 h, 20 °C; scans at 415 nm.
For data set [4], the target named is NXR-T (Kustd1705), tubule-inducing NXR subunit, recombinant, N-terminal His-tag cleaved (Kuenenia stuttgartiensis). The data set is described as follows: cryo-EM structure; helical reconstruction of tubules reconstituted from KsNXR-ABC and Kustd1705, 5.8 Å after density modification.
Substrate in data set [5]: O=NO
The data set is described as follows: purified protein. The format is biochemical, Candidatus Kuenenia stuttgartensis. The settings on record: 800 µM ferricyanide as electron acceptor, 50 mM KPi, 150 mM NaCl, pH 7.25, 35 °C.

Substrate in data set [6]: O=[N+]([O-])O
The data set is described as follows: purified protein. The format is biochemical, Candidatus Kuenenia stuttgartensis. As to conditions: reduced methyl viologen as electron donor, 50 mM KPi, pH 7.2, 35 °C, anaerobic.

T1 sequence (Q1PZD5 1-410 partner, one chain of several): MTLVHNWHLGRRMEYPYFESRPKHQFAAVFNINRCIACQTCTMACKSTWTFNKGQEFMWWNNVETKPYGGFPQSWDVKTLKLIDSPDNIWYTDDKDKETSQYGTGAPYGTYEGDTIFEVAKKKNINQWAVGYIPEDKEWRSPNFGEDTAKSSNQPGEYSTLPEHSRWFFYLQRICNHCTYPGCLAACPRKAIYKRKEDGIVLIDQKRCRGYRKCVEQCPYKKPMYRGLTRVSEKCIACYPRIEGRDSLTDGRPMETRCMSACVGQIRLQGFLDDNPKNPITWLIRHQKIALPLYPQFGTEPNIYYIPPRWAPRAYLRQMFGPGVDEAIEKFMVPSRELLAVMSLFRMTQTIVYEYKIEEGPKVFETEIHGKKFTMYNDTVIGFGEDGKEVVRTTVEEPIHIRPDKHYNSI
T1 sequence (Q1PZD4 29-322 partner, one chain of several): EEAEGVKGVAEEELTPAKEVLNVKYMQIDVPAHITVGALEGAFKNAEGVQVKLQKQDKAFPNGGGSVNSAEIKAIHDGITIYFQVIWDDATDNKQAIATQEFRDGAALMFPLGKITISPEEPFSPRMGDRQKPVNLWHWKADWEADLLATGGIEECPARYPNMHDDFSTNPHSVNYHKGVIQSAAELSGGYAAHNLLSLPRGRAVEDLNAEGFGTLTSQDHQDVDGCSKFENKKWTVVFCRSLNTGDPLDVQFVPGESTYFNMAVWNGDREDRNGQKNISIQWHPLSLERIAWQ
T1 sequence (A0A2C9CDL6 21-180 partner, one chain of several): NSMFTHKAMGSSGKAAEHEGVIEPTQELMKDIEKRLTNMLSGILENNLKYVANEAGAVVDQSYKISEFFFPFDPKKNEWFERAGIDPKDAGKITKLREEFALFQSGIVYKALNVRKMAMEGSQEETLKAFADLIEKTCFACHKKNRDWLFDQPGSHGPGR

Take `O=NO` [nitrite]: in data set [1], the “spectrophotometric, ferricyanide reduction at 420 nm” value is “can be disassembled by adding the detergent dodecyl maltoside, show nitrite oxidation activity”.
What is called stoichiometry N is a count of units in the complex or per binding partner. With “Broful_01488, NXR-T homologue from Brocadia fulgida, recombinant, N-terminal His-tag cleaved (natural protein)”, the stoichiometry N in data set [2] came out at 2.
With “NXR-T (Kustd1705), recombinant, as used for analytical ultracentrifugation (tagged version not stated) (natural protein)”, the stoichiometry N in data set [3] was 2.
For the molecule “NXR-T (Kustd1705), tubule-inducing NXR subunit, recombinant, N-terminal His-tag cleaved (natural protein)”, in data set [4], the stoichiometry N was found to be 2.

B1: KsNXR-ABC (Candidatus Kuenenia stuttgartensis) (protein)
chain: FRLLKPAVVVDNPLDTYPDRRWESVYRDQYQYDRTFTYCCSPNDTHACRIRAFVRNNVMMRVEQNYDHQNYSDLYGNKATRNWNPRMCLKGYTFHRRVYGPYRLRYPLIRKGWKRWADDGFPELTPENKTKYMFDNRGNDELLRASWDEAFTYASKGIIHITKKYSGPEGAQKLIDQGYPKEMVDRMQGAGTRTFKGRGGMGLLGVIGKYGMYRFNNCLAIVDAHNRGVGPDQALGGRNWSNYTWHGDQAPGHPFSHGLQTSDVDMNDVRFSKLLIQTGKNLIENKMPEAHWVTEVMERGGKIVVITPEYSPSAQKADYWIPIRNNTDTALFLGITKILIDNKWYDADYVKKFTDFPLLIRTDTLKRVSPKDIIPNYKLQDISDGPSYHIQGLKDEQREIIGDFVVWDAKSKGPKAITRDDVGETLVKKGIDPVLEGSFKLKTIDGKEIEVMTLLEMYKIHLRDYDIDSVVSMTNSPKDLIERLAKDIATIKPVAIHYGEGVNHYFHATLMNRSYYLPVMLTGNVGYFGSGSHTWAGNYKAGNFQASKWSGPGFYGWVAEDVFKPNLDPYASAKDLNIKGRALDEEVAYWNHSERPLIVNTPKYGRKVFTGKTHMPSPTKVLWFTNVNLINNAKHVYQMLKNVNPNIEQIMSTDIEITGSIEYADFAFPANSWVEFQEFEITNSCSNPFIQIWGKTGITPVYESKDDVKILAGMASKLGELLRDKRFEDNWKFAIEGRASVYINRLLDGSTTMKGYTCEDILNGKYGEPGVAMLLFRTYPRHPFWEQVHESLPFYTPTGRLQAYNDEPEIIEYGENFIVHREGPEATPYLPNAIVSTNPYIRPDDYGIPENAEYWEDRTVRNIKKSWEETKKTKNFLWEKGYHFYCVTPKSRHTVHSQWAVTDWNFIWNNNFGDPYRMDKRMPGVGEHQIHIHPQAARDLGIEDGDYVYVDANPADRPYEGWKPNDSFYKVSRLMLRAKYNPAYPYNCTMMKHSAWISSDKTVQAHETRPDGRALSPSGYQSSFRYGSQQSITRDWSMPMHQLDSLFHKAKIGMKFIFGFEADNHCINTVPKETLVKITKAENGGMGGKGVWDPVKTGYTAGNENDFMKKFLNGELIKVDA
notes: untagged; with nitrite oxidoreductase subunit B, iron-sulfur subunit (NarH-like); nitrite oxidoreductase subunit C, haem b-containing subunit
In general, Km refers to the substrate concentration at which the rate is half of its maximum. For the molecule B1, the Michaelis-Menten constant (Km) in the data set “purified protein [5]” is 22 ± 5 µM; in the data set “purified protein [6]”, 14 ± 1 µM.

Values taken from PMC8387239, “Structural and functional characterization of the intracellular filament-forming nitrite oxidoreductase multiprotein complex” (Nature Microbiology, 2021).
